Measured values from US20210032312A1 (Janssen / Centocor, published 2021).

Experiments:
[1] = molecular target: T1, human CD8 alpha (CD8A) on primary human CD8+ T cells (human, UniProt P01732 22-235); assay: flow cytometry, human CD8+ T cells, 2 uM FN3
T1 construct: whole, on cells; also called hCD8A
Method: (§1) Binding of the 190 ELISA hits to human and cynomologous monkey primary CD8 T cells was assessed by flow cytometry. The FN3 domain molecules were diluted to 2 μM and 0.2 μM in PBS and incubated with human or cynomologous monkey CD8+ T cells in 96-well format. After 1 hour at 4 C, the cells were washed once with PBS and then resuspended with an anti-FN3 domain antibody (PAB25) solution. Following this incubation, the cells were washed twice with PBS and a PE conjugated secondary antibody and a viability dye were added. Finally, cells were washed and resuspended in PBS for flow cytometric analysis using a BD Canto Instrument. Cells were gating on live cells and median fluorescence intensity of the bound Centyrins (PE channel) was calculated using Cytobank software.

[2] = molecular target: T2, cynomolgus monkey CD8A on primary cynomolgus monkey CD8+ T cells (cynomolgus monkey, UniProt P01732 23-235 (human entry)); assay: flow cytometry, cyno CD8+ T cells, 2 uM FN3
T2 construct: also called Cyno CD8alpha
T2 sequence (P01732 other isoform, or with tags, fused parts or gaps limits assumed): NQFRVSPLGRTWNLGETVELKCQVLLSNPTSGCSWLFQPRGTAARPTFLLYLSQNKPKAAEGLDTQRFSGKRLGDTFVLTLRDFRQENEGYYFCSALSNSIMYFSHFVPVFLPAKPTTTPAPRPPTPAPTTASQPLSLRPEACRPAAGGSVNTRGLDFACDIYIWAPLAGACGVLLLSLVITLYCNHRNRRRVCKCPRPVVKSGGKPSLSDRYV
Method: as §1

[3] = molecular target: T2, cynomolgus monkey CD8A on primary …; assay: flow cytometry, cyno CD8+ T cells, 0.2 uM FN3
Method: as §1

[4] = molecular target: T3, In house human CD8A-Fc (human, UniProt P01732 22-182, limits assumed); assay: SPR (ProteOn), captured hCD8A-Fc
T3 construct: Captured on goat anti-human Fc on a ProteOn GLC chip; also called hCD8A-Fc; recombinant human CD8 alpha; not shown: linker with flag (and polyhistidine) tag and Fc of human IgG1
T3 sequence (P01732 22-182 limits assumed): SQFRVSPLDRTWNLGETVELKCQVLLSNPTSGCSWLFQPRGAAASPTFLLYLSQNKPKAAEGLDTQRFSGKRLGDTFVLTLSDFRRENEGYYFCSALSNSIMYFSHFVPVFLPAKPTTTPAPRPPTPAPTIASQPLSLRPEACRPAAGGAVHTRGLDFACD
Method: Purified anti-CD8A FN3 domains were subjected to off-rate analysis using a Proteon surface plasmon resonance instrument in order to pick clones with the slowest off-rates for further characterization.
The immobilized GAH-Fc IgG densities averaged about 6000 Response Units (Ru) with less than 1% variation among different channels. In house human CD8A-Fc was captured in vertical orientation at 3 different ligand densities, 10, 5, 2.5 μg/ml for 5 minutes at 30 ul/minute flowrate. All FN3 domains were normalized to a 3 μM concentration, and tested for binding in horizontal orientation. All 6 analyte channels were used for FN3 domains to maximize the screening throughput. The dissociation phase was monitored for 15 minutes at a flow rate of 100 μl/min using PBST as running buffer. […] Data analyses were performed using Bio-Rad ProteOn Manager software (version 3.1.0.6). Raw data were double referenced by subtraction of the interspot (empty chip surface, no protein immobilized or captured) signals to correct the non-specific binding of the FN3 domain to the pre-coated GAH-Fc IgG surface, followed by a double correction using empty channel L6 where no hCD8A-Fc was captured. The processed binding data were locally fit to a 1:1 simple Langmuir binding model to extract the koff for each FN3 domain binding to captured hCD8A-Fc.

[5] = molecular target: T1, human CD8 alpha (CD8A) on primary human …; assay: flow cytometry, human CD8+ T cells, 0.2 uM FN3
Method: as §1

T1 sequence (P01732 22-235): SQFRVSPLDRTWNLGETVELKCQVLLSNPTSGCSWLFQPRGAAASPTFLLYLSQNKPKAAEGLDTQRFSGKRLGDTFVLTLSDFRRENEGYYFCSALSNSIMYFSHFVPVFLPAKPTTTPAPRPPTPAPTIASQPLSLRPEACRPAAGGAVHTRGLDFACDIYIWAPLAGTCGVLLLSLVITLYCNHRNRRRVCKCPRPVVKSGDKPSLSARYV

Binder	Human T-cell Binding 2 uM (MFI) [1] [MFI]	Cyno T-cell Binding 2 uM (MFI) [2] [MFI]	Cyno T-cell Binding 0.2 uM (MFI) [3] [MFI]	koff [4] [s⁻¹]	Human T-cell Binding 0.2 uM (MFI) [5] [MFI]
P282DR9P1359_F5 (designed binder, FN3 domain) LPAPKNLVVSRVTEDSARLSWTAPDAAFDSFQIAYPEWPPPGEAIVLTVPGSERSYDLTGLKPGTEYFVIIQGVKGGVESWPLSAIFTT	48900	114000	34700	9.02e-05	8480
P282DR9P1359_E5 (designed binder, FN3 domain) LPAPKNLVVSRVTEDSARLSWTAPDAAFDSFAISYPEWPVPGEAIVLTVPGSERSYDLTGLKPGTEYFVIIYGVKGGLYSAPLSAIFTT	24100	81200	13600	0.00101	1950
P282DR9P1359_C12 (designed binder, FN3 domain) LPAPKNLVVSRVTEDSARLSWTAPDAAFDSFYISYPEWPVPGEAIVLTVPGSERSYDLTGLKPGTEYWVVIYGVKGGALSVPLSAIFTT	15100	66500	3640	0.000978	944
P282DR9P1359_E3 (designed binder, FN3 domain) LPAPKNLVVSRVTEDSARLSWTAPDAAFDSFAIAYPELPLGGEAIVLTVPGSERSYDLTGLKPGTEYFVIIYGVKGGVESFPLSAIFTT	4310	52400	1620	0.00263	349
P282CR9P1358_F5 (designed binder, FN3 domain) LPAPKNLVVSRVTEDSARLSWTAPDAAFDSFWISYPEWPPDGEAIVLTVPGSERSYDLTGLKPGTEYFVIIWGVKGGETSAPLSAIFTT	24400	85700	13700	0.000637	3070
P282DR9P1359_C11 (designed binder, FN3 domain) LPAPKNLVVSRVTEDSARLSWTAPDAAFDSFKIAYPEFPPPGEAIVLTVPGSERSYDLTGLKPGTEYYVIIIGVKGGTDSWPLSAIFTT	18200	19900	457	0.00216	1290
P282DR9P1359_A12 (designed binder, FN3 domain) LPAPKNLVVSRVTEDSARLSWTAPEAAFDSFQIAYPEWPPPREAIVLTVPGSERSYDLTGLKPGTEYFVVIQGVKGGEISWPLSAIFTT	32200	88000	15500	8.12e-05	5950
P282DR9P1359_E6 (designed binder, FN3 domain) LPAPKNLVVSRVTEDSARLSWTAPDAAFDSFWIAYPEWPVQGEAIVLTVPGSERSYDLTGLKPGTEYFVVIQGVKGGTPSWPLSAIFTT	20500	61700	5060	0.00171	1260
P282CR9P1358_D10 (designed binder, FN3 domain) LPAPKNLVVSRVTEDSARLSWTAPDAAFDSFLISYPEYPPPGEAIVLTVPGSERSYDLTGLKPGTEYFVIIFGVKGGDTSWPLSAIFTT	28600	74100	4070	0.000311	2760
P282DR9P1359_E8 (designed binder, FN3 domain) LPAPKNLVVSRVTEDSARLSWTAPDAAFDSFQIAYPEWPVIGEAIVLTVPGSERSYDLTGLKPGTEYWVIIQGVKGGYTSWPLSAIFTT	26100	81000	16900	0.00119	2920
P282DR9P1359_C10 (designed binder, FN3 domain) LPAPKNLVVSRVTEDSARLSWTAPDAAFDSFAIVYPEWPTDGEAIVLTVPGSERSYDLTGLKPGTEYAVFIWGVKGGNQSWPLSAIFTT	27800	98500	15100	0.000991	2880
P282CR9P1358_C2 (designed binder, FN3 domain) LPAPKNLVVSRVTEDSARLSWTAPDAAFDSFKIAYPEWPSNGEAIVLTVPGSERSYDLTGLKPGTEYAVFIWGVKGGAFSNPLSAIFTT	10100	55800	7050	0.00113	1060
P282DR9P1359_A8 (designed binder, FN3 domain) LPAPKNLVVSRVTEDSARLSWTAPDAAFDSFRIAYPEWPVQGEAIVLTVPGSERSYDLTGLKPGTEYFVIIYGVKGGELSPPLSAIFTT	21100	70300	7770	0.000638	2110
P282CR9P1358_C5 (designed binder, FN3 domain) LPAPKNLVVSRVTEDSARLSWTAPDAAFDSFLIAYPEWPDSGEAIVLTVPGSERSYDLTGLKPGTEYAVFIWGVKGGPLSHPLSAIFTT	2710	25700	1830	0.000999	511
P282DR9P1359_D12 (designed binder, FN3 domain) LPAPKNLVVSRVTEDSARLSWTAPDAAFDSFRIAYPETATWGEAIVLTVPGSERSYDLTGLKPGTEYFVIIYGVKGGFESAPLSAIFTT	4540	37100	1750	0.00193	542
P282BR9P1357_G9 (designed binder, FN3 domain) LPAPKNLVVSRVTEDSARLSWPIASQIHSPFDSFLIQYQESEKVGEAIVLTVPGSERSYDLTGLKPGTEYTVSIYGVDVKYDIDSRPISSNPLSAIFTT	12700	41500	4640	0.000304	2800
P283BR9P1363_B2 (designed binder, FN3 domain) LPAPKNLVVSRVTEDSARLSWASTVDPHPRFDSFLIQYQESEKVGEAIVLTVPGSERSYDLTGLKPGTEYTVSIYGVDVKYDIDSRPISSNPLSAIFTT	8360	14800	2820	0.000208	2400
